Experiment [1] has as its target T1, cynomolgus FcRH5 protein fragment (soluble) (cynomolgus monkey).
T1 construct: whole entry named; also called Cyno FcRH5 (BIACORE analyte)
T1 chain: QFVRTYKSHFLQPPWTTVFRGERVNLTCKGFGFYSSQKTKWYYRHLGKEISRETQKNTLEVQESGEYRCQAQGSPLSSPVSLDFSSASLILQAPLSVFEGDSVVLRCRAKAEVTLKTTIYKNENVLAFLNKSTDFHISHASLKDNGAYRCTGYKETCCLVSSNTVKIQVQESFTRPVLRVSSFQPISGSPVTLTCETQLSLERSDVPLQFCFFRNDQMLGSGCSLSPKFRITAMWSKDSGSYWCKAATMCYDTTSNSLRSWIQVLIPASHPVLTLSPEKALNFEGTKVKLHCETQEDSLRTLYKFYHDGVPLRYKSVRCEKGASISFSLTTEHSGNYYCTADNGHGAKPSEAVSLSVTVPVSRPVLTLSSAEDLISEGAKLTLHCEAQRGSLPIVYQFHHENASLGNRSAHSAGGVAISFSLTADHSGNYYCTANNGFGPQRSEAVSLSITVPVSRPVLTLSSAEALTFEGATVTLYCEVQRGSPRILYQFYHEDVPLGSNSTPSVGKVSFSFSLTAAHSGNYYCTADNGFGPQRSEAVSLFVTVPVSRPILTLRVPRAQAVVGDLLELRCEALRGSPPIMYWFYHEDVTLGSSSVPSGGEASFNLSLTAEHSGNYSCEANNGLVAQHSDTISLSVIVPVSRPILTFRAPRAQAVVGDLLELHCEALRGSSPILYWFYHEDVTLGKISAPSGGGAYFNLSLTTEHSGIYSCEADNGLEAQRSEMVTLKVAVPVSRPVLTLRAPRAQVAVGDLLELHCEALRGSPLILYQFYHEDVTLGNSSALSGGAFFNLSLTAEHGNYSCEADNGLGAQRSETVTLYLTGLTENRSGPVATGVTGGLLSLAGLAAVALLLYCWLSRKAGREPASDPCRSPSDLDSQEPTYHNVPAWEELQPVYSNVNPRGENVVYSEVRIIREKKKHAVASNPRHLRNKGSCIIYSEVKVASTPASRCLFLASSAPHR
Description: SPR (BIACORE), TDB captured as ligand, Cyno FcRH5 as analyte, 25 °C, 1:1 binding model.

Experiment [2] addresses T2, human FcRH2 (full-length, on SVT2 cells) (human, UniProt Q96LA5 20-508).
T2 construct: whole, on cells; also called SVT2-FcRH2
T2 sequence (looked up): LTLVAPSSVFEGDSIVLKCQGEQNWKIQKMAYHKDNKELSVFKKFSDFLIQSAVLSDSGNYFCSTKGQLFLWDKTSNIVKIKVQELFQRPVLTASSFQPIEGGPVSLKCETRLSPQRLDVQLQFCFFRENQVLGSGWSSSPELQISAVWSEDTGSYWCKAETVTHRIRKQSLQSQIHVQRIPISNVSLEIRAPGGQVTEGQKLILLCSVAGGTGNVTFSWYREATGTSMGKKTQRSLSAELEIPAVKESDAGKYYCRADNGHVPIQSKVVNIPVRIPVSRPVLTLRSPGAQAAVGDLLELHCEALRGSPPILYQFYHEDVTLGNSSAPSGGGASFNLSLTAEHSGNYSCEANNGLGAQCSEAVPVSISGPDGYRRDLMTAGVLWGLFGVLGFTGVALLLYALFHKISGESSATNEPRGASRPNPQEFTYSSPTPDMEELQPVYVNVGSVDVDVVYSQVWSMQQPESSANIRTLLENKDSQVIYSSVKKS
The experiment in a line: flow cytometry on SVT2-FcRH2 cells, PE-labelled secondary. The method, then: (§1) Human FcRH5, cyno FcRH5, human FcRH1, FcRH2, FcRH3, and FcRH4 transfected mouse SVT2 cells were used to test binding and cross-reactivity of FcRH5 TDBs. The method was carried out as follows. Cultured SVT2 cells were lifted using non-enzyme cell dissociation buffer (Sigma, #C5914). 1×10⁵ cells were suspended in 100 μL and incubated with FcRH5 TDBs at 3 μg/ml. […] Cells were washed twice with FACS buffer before flow cytometry analysis was carried out on a FACSCalibur.

Experiment [3] deals with T3, human FcRH4 (full-length, on SVT2 cells) (human, UniProt Q96PJ5 20-515).
T3 construct: whole, on cells; also called SVT2-FcRH4
T3 sequence (looked up): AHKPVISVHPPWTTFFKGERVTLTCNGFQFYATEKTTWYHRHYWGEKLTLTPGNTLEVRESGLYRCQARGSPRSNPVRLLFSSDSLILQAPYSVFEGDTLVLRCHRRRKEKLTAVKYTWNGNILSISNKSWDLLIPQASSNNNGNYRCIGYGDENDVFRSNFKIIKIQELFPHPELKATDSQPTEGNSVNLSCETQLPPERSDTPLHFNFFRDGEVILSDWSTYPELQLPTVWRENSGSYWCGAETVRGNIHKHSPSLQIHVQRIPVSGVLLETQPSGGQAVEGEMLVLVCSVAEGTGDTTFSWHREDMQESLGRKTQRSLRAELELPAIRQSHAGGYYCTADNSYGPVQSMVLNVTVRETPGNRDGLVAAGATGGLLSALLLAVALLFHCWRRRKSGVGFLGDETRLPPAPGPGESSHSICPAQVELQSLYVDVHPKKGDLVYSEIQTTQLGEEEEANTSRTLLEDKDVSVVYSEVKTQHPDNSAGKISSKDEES
The experiment in a line: flow cytometry on SVT2-FcRH4 cells, PE-labelled secondary. As for the experimental part:
as §1

B1: hu1G7.v1.4/38E4.v1 TDB (bispecific antibody, V domains shown)
VH 1: EVQLVESGPGLVKPSETLSLTCTVSGFSLTRFGVHWVRQPPGKGLEWLGVIWRGGSTDYNAAFMSRLTISKDNSKNQVSLKLSSVTAADTAVYYCSNHYYGSSDYALDNWGQGTLVTVSS
VL 1: DIQMTQSPSSLSASVGDRVTITCKASQDVRNLVVWFQQKPGKAPKLLIYSGSYRYSGVPSRFSGSGSGTDFTLTISSLQPEDFATYYCQQHYSPPYTFGQGTKVEIK
VH 2: EVQLVQSGAEVKKPGASVKVSCKASGFTFTSYYIHWVRQAPGQGLEWIGWIYPENDNTKYNEKFKDRVTITADTSTSTAYLELSSLRSEDTAVYYCARDGYSRYYFDYWGQGTLVTVSS
VL 2: DIVMTQSPDSLAVSLGERATINCKSSQSLLNSRTRKNYLAWYQQKPGQSPKLLIYWTSTRKSGVPDRFSGSGSGTDFTLTISSLQAEDVAVYYCKQSFILRTFGQGTKVEIK
notes: knob-into-hole TDB; also called 1G7.v1.4 TDB; 1G7.v1.4 (TDB format)
In experiment [1], B1 gave a dissociation constant Kd of 6.27 nM, a dissociation rate constant (koff) of 0.000847 s⁻¹ and a kon of 135000 M⁻¹ s⁻¹.

B2: 1G7.v85/38E4.v1 TDB (bispecific antibody, V domains shown)
VH 1: EVQLVESGPGLVKPSETLSLTCTVSGFSLTRFGVHWVRQPPGKGLEWLGVIWRGGSTDYNAAFVSRLTISKDNSKNQVSLKLSSVTAADTAVYYCSNHYYGSSDYALDNWGQGTLVTVSS
VL 1: DIQMTQSPSSLSASVGDRVTITCKASQDVRNLVVWFQQKPGKAPKLLIYSGSYRYSGVPSRFSGSGSGTDFTLTISSLQPEDFATYYCQQHYSPPYTFGQGTKVEIK
VH 2: EVQLVQSGAEVKKPGASVKVSCKASGFTFTSYYIHWVRQAPGQGLEWIGWIYPENDNTKYNEKFKDRVTITADTSTSTAYLELSSLRSEDTAVYYCARDGYSRYYFDYWGQGTLVTVSS
VL 2: DIVMTQSPDSLAVSLGERATINCKSSQSLLNSRTRKNYLAWYQQKPGQSPKLLIYWTSTRKSGVPDRFSGSGSGTDFTLTISSLQAEDVAVYYCKQSFILRTFGQGTKVEIK
notes: knob-into-hole TDB; also called 1G7.v85 TDB; 1G7.v85 (TDB format)
For the molecule B2, the binding result in experiment [2] and in experiment [3] was “no binding” throughout.

Source of the values: US20240383984A1 (Genentech, published 2024).
